Source: the supplement of paper PMC9112550, “Optimization of the antimicrobial peptide Bac7 by deep mutational scanning” (BMC Biology, 2022)

Tested on: Escherichia coli TOP10
Assay: shrunken log2 fold change of peptide-encoding DNA abundance (4.5 h post-induction vs induction); higher = less antimicrobial activity (less host growth inhibition)
Conditions: time post-induction: 4.5 h; library: site-saturation at positions 5, 18, 19, 20
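Also: peptides expressed intracellularly from a pBAD plasmid library in pooled LB shake-flask culture, induced with 0.3% L-arabinose, DNA abundance read by NGS, three biological replicates, DESeq2 with apeglm shrinkage.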

RRIRTRPPRLPRPRPRPRELPRP
shrunken log2 fold change: 0.267

RRIRTRPPRLPRPRPRPRFLPRP
shrunken log2 fold change: 0.903

RRIRTRPPRLPRPRPRPRGGPRP
shrunken log2 fold change: 0.334

RRIRTRPPRLPRPRPRPRGLPRP
shrunken log2 fold change: 0.62

RRIRTRPPRLPRPRPRPRHNPRP
shrunken log2 fold change: -0.293

RRIRTRPPRLPRPRPRPRIMPRP
shrunken log2 fold change: -0.254

RRIRTRPPRLPRPRPRPRIYPRP
shrunken log2 fold change: -0.304

RRIRTRPPRLPRPRPRPRKSPRP
shrunken log2 fold change: -0.0508

RRIRTRPPRLPRPRPRPRKTPRP
shrunken log2 fold change: 0.111

RRIRTRPPRLPRPRPRPRKWPRP
shrunken log2 fold change: 0.215

RRIRTRPPRLPRPRPRPRLCPRP
shrunken log2 fold change: 0.317

RRIRTRPPRLPRPRPRPRMSPRP
shrunken log2 fold change: -0.259

RRIRTRPPRLPRPRPRPRNDPRP
shrunken log2 fold change: -0.227

RRIRTRPPRLPRPRPRPRNEPRP
shrunken log2 fold change: -0.0624

RRIRTRPPRLPRPRPRPRPHPRP
shrunken log2 fold change: 0.296

RRIRTRPPRLPRPRPRPRPQPRP
shrunken log2 fold change: 0.146

RRIRTRPPRLPRPRPRPRQEPRP
shrunken log2 fold change: 0.0565

RRIRTRPPRLPRPRPRPRQQPRP
shrunken log2 fold change: 0.349

RRIRTRPPRLPRPRPRPRRNPRP
shrunken log2 fold change: 0.125

RRIRTRPPRLPRPRPRPRRPPRP
shrunken log2 fold change: 0.493

RRIRTRPPRLPRPRPRPRRTPRP
shrunken log2 fold change: 0.338

RRIRTRPPRLPRPRPRPRRYPRP
shrunken log2 fold change: 0.108

RRIRTRPPRLPRPRPRPRSIPRP
shrunken log2 fold change: -0.122

RRIRTRPPRLPRPRPRPRTCPRP
shrunken log2 fold change: 1.21

RRIRTRPPRLPRPRPRPRTDPRP
shrunken log2 fold change: -0.0849

RRIRTRPPRLPRPRPRPRTSPRP
shrunken log2 fold change: 0.098

RRIRTRPPRLPRPRPRPRVCPRP
shrunken log2 fold change: 0.369

RRIRTRPPRLPRPRPRPRVKPRP
shrunken log2 fold change: -0.0675

RRIRTRPPRLPRPRPRPRVYPRP
shrunken log2 fold change: -0.454

RRIRTRPPRLPRPRPRPRWEPRP
shrunken log2 fold change: 0.0443

RRIRTRPPRLPRPRPRPRYKPRP
shrunken log2 fold change: -0.909

RRIRTRPPRLPRPRPRPRYMPRP
shrunken log2 fold change: -0.62

RRIRTRPPRLPRPRPRPSCMPRP
shrunken log2 fold change: -0.0847

RRIRTRPPRLPRPRPRPSDQPRP
shrunken log2 fold change: -0.183

RRIRTRPPRLPRPRPRPSFGPRP
shrunken log2 fold change: 0.129

RRIRTRPPRLPRPRPRPSFTPRP
shrunken log2 fold change: -0.867

RRIRTRPPRLPRPRPRPSFVPRP
shrunken log2 fold change: -0.488

RRIRTRPPRLPRPRPRPSGRPRP
shrunken log2 fold change: 0.0348

RRIRTRPPRLPRPRPRPSIGPRP
shrunken log2 fold change: -0.272

RRIRTRPPRLPRPRPRPSINPRP
shrunken log2 fold change: -0.63

RRIRTRPPRLPRPRPRPSLGPRP
shrunken log2 fold change: -0.229

RRIRTRPPRLPRPRPRPSLLPRP
shrunken log2 fold change: -0.0532

RRIRTRPPRLPRPRPRPSLNPRP
shrunken log2 fold change: -0.555

RRIRTRPPRLPRPRPRPSNAPRP
shrunken log2 fold change: -0.424

RRIRTRPPRLPRPRPRPSPMPRP
shrunken log2 fold change: -0.163

RRIRTRPPRLPRPRPRPSQSPRP
shrunken log2 fold change: -0.114

RRIRTRPPRLPRPRPRPSRAPRP
shrunken log2 fold change: 0.271

RRIRTRPPRLPRPRPRPSTVPRP
shrunken log2 fold change: 0.0213

RRIRTRPPRLPRPRPRPSTWPRP
shrunken log2 fold change: -0.176

RRIRTRPPRLPRPRPRPSWTPRP
shrunken log2 fold change: -0.468

RRIRTRPPRLPRPRPRPSYIPRP
shrunken log2 fold change: -0.511

RRIRTRPPRLPRPRPRPTCAPRP
shrunken log2 fold change: 0.175

RRIRTRPPRLPRPRPRPTCIPRP
shrunken log2 fold change: -0.503

RRIRTRPPRLPRPRPRPTCPPRP
shrunken log2 fold change: -0.0738

RRIRTRPPRLPRPRPRPTECPRP
shrunken log2 fold change: -0.0493

RRIRTRPPRLPRPRPRPTEGPRP
shrunken log2 fold change: 0.1

RRIRTRPPRLPRPRPRPTEHPRP
shrunken log2 fold change: -0.106

RRIRTRPPRLPRPRPRPTEPPRP
shrunken log2 fold change: 0.045

RRIRTRPPRLPRPRPRPTHEPRP
shrunken log2 fold change: 0.746

RRIRTRPPRLPRPRPRPTILPRP
shrunken log2 fold change: -0.453

RRIRTRPPRLPRPRPRPTKFPRP
shrunken log2 fold change: -0.638

RRIRTRPPRLPRPRPRPTLDPRP
shrunken log2 fold change: 0.249

RRIRTRPPRLPRPRPRPTLNPRP
shrunken log2 fold change: 0.569

RRIRTRPPRLPRPRPRPTNLPRP
shrunken log2 fold change: -0.0724

RRIRTRPPRLPRPRPRPTNWPRP
shrunken log2 fold change: 0.155

RRIRTRPPRLPRPRPRPTNYPRP
shrunken log2 fold change: -0.857

RRIRTRPPRLPRPRPRPTPAPRP
shrunken log2 fold change: 0.57

RRIRTRPPRLPRPRPRPTPLPRP
shrunken log2 fold change: 0.147

RRIRTRPPRLPRPRPRPTQCPRP
shrunken log2 fold change: 0.227

RRIRTRPPRLPRPRPRPTREPRP
shrunken log2 fold change: -0.157

RRIRTRPPRLPRPRPRPTSNPRP
shrunken log2 fold change: -0.43

RRIRTRPPRLPRPRPRPTTDPRP
shrunken log2 fold change: -0.0867

RRIRTRPPRLPRPRPRPTTQPRP
shrunken log2 fold change: -0.338

RRIRTRPPRLPRPRPRPTVCPRP
shrunken log2 fold change: -0.509

RRIRTRPPRLPRPRPRPTWFPRP
shrunken log2 fold change: -0.0683

RRIRTRPPRLPRPRPRPTYAPRP
shrunken log2 fold change: -0.0854

RRIRTRPPRLPRPRPRPTYQPRP
shrunken log2 fold change: -0.206

RRIRTRPPRLPRPRPRPVAHPRP
shrunken log2 fold change: -0.0854

RRIRTRPPRLPRPRPRPVCFPRP
shrunken log2 fold change: -0.104

RRIRTRPPRLPRPRPRPVDDPRP
shrunken log2 fold change: -0.018

RRIRTRPPRLPRPRPRPVDLPRP
shrunken log2 fold change: -0.0153

RRIRTRPPRLPRPRPRPVETPRP
shrunken log2 fold change: 0.306

RRIRTRPPRLPRPRPRPVFFPRP
shrunken log2 fold change: 0.0831

RRIRTRPPRLPRPRPRPVFGPRP
shrunken log2 fold change: 0.227

RRIRTRPPRLPRPRPRPVGDPRP
shrunken log2 fold change: 0.21

RRIRTRPPRLPRPRPRPVIHPRP
shrunken log2 fold change: 0.0146

RRIRTRPPRLPRPRPRPVKWPRP
shrunken log2 fold change: -0.0599

RRIRTRPPRLPRPRPRPVMAPRP
shrunken log2 fold change: -0.0918

RRIRTRPPRLPRPRPRPVMVPRP
shrunken log2 fold change: -0.0537

RRIRTRPPRLPRPRPRPVNAPRP
shrunken log2 fold change: -0.189

RRIRTRPPRLPRPRPRPVNIPRP
shrunken log2 fold change: -0.136

RRIRTRPPRLPRPRPRPVPRPRP
shrunken log2 fold change: 0.315

RRIRTRPPRLPRPRPRPVRAPRP
shrunken log2 fold change: 0.514

RRIRTRPPRLPRPRPRPVRYPRP
shrunken log2 fold change: -0.028

RRIRTRPPRLPRPRPRPVSEPRP
shrunken log2 fold change: 0.135

RRIRTRPPRLPRPRPRPVTIPRP
shrunken log2 fold change: -0.0419

RRIRTRPPRLPRPRPRPVVHPRP
shrunken log2 fold change: -0.0314

RRIRTRPPRLPRPRPRPVWHPRP
shrunken log2 fold change: 0.095

RRIRTRPPRLPRPRPRPVWRPRP
shrunken log2 fold change: 0.302

RRIRTRPPRLPRPRPRPVYWPRP
shrunken log2 fold change: -0.103

RRIRTRPPRLPRPRPRPWAAPRP
shrunken log2 fold change: -0.0363

RRIRTRPPRLPRPRPRPWCTPRP
shrunken log2 fold change: -0.275

RRIRTRPPRLPRPRPRPWDEPRP
shrunken log2 fold change: -0.167

RRIRTRPPRLPRPRPRPWDMPRP
shrunken log2 fold change: -0.33

RRIRTRPPRLPRPRPRPWDWPRP
shrunken log2 fold change: 0.00763

RRIRTRPPRLPRPRPRPWFAPRP
shrunken log2 fold change: 0.0386

RRIRTRPPRLPRPRPRPWGYPRP
shrunken log2 fold change: -0.0354

RRIRTRPPRLPRPRPRPWHNPRP
shrunken log2 fold change: -0.0242

RRIRTRPPRLPRPRPRPWLGPRP
shrunken log2 fold change: -0.00306

RRIRTRPPRLPRPRPRPWMDPRP
shrunken log2 fold change: -0.13

RRIRTRPPRLPRPRPRPWMPPRP
shrunken log2 fold change: -0.247

RRIRTRPPRLPRPRPRPWMVPRP
shrunken log2 fold change: -0.208

RRIRTRPPRLPRPRPRPWNCPRP
shrunken log2 fold change: -0.214

RRIRTRPPRLPRPRPRPWRMPRP
shrunken log2 fold change: -0.139

RRIRTRPPRLPRPRPRPWSKPRP
shrunken log2 fold change: -0.0826

RRIRTRPPRLPRPRPRPWTNPRP
shrunken log2 fold change: -0.148

RRIRTRPPRLPRPRPRPWVCPRP
shrunken log2 fold change: -1.58

RRIRTRPPRLPRPRPRPWVEPRP
shrunken log2 fold change: -0.297

RRIRTRPPRLPRPRPRPYAAPRP
shrunken log2 fold change: -0.445

RRIRTRPPRLPRPRPRPYAMPRP
shrunken log2 fold change: -0.462

RRIRTRPPRLPRPRPRPYENPRP
shrunken log2 fold change: -0.0748

RRIRTRPPRLPRPRPRPYFQPRP
shrunken log2 fold change: -0.587

RRIRTRPPRLPRPRPRPYFRPRP
shrunken log2 fold change: -0.138

RRIRTRPPRLPRPRPRPYHAPRP
shrunken log2 fold change: -0.236

RRIRTRPPRLPRPRPRPYHNPRP
shrunken log2 fold change: -0.941

RRIRTRPPRLPRPRPRPYIRPRP
shrunken log2 fold change: -1.31

RRIRTRPPRLPRPRPRPYIWPRP
shrunken log2 fold change: -0.329

RRIRTRPPRLPRPRPRPYKTPRP
shrunken log2 fold change: -0.315

RRIRTRPPRLPRPRPRPYLSPRP
shrunken log2 fold change: 0.0138

RRIRTRPPRLPRPRPRPYMAPRP
shrunken log2 fold change: -1.06

RRIRTRPPRLPRPRPRPYMLPRP
shrunken log2 fold change: -1.13

RRIRTRPPRLPRPRPRPYNGPRP
shrunken log2 fold change: -0.203

RRIRTRPPRLPRPRPRPYNSPRP
shrunken log2 fold change: -0.00162

RRIRTRPPRLPRPRPRPYPDPRP
shrunken log2 fold change: -0.0217

RRIRTRPPRLPRPRPRPYSDPRP
shrunken log2 fold change: -0.148

RRIRTRPPRLPRPRPRPYSMPRP
shrunken log2 fold change: -2.42

RRIRTRPPRLPRPRPRPYSNPRP
shrunken log2 fold change: -0.941

RRIRTRPPRLPRPRPRPYTWPRP
shrunken log2 fold change: -0.465

RRIRTRPPRLPRPRPRPYVVPRP
shrunken log2 fold change: -0.738

RRIRTRPPRLPRPRPRPYWFPRP
shrunken log2 fold change: -0.535

RRIRTRPPRLPRPRPRPYWHPRP
shrunken log2 fold change: -0.4

RRIRTRPPRLPRPRPRPYWKPRP
shrunken log2 fold change: -0.000823

RRIRTRPPRLPRPRPRPYWNPRP
shrunken log2 fold change: -0.343

RRIRTRPPRLPRPRPRPYWVPRP
shrunken log2 fold change: -0.0888

RRIRTRPPRLPRPRPRPYYSPRP
shrunken log2 fold change: -0.274

RRIRTRPPRLPRPRPRPYYVPRP
shrunken log2 fold change: -1.13

RRIRVRPPRLPRPRPRPACPPRP
shrunken log2 fold change: 0.311

RRIRVRPPRLPRPRPRPADTPRP
shrunken log2 fold change: -0.32

RRIRVRPPRLPRPRPRPAERPRP
shrunken log2 fold change: -0.0583

RRIRVRPPRLPRPRPRPAEWPRP
shrunken log2 fold change: 0.129
